Experimental findings from PMC8361300 are described below.

A value given as a limit tells only on which side of the number the result lay.

Experiment [1] has as its target Nucleobindin-2 from Gallus gallus (ggNucb2) (Gallus gallus). The experiment is described as follows: AUC; sedimentation velocity, 50,000 rpm, 20 °C, buffer C (20 mM Tris-HCl, 150 mM NaCl, pH 7.5) with 100 µM ZnCl2 (also 200 and 300 µM); protein 0.5, 0.75 and 1.0 mg/ml; c(s) model.
For experiment [2] the target is unchanged. The experiment is described as follows: SAXS; protein 3.5 mg/ml with 5 mM EDTA, 10 mM Ca2+, 10 mM Mg2+ or 100 µM Zn2+; molecular mass from I(0) against BSA.
For experiment [3], the target named is Nucleobindin-2 from Gallus gallus (Gallus gallus). The experiment is described as follows: ITC; Ca2+ (4000 µM) titrated into ggNucb2 (50 µM), 25 °C, 20 mM HEPES, 150 mM NaCl, pH 7.5; broad range fit to the AA BB model with ligand-mediated dimerization ((A + A) + B + B to (AA)BB) in SEDPHAT; constant of the step monomers to dimer.
In experiment [4] the target is Nucleobindin-2 from Homo sapiens (hsNucb2) (Homo sapiens). Description: SAXS; protein 3.5 mg/ml with 5 mM EDTA, 10 mM Ca2+, 10 mM Mg2+ or 100 µM Zn2+; molecular mass from I(0) against BSA.
Experiment [5] shares this target. Description: AUC; sedimentation velocity, 50,000 rpm, 20 °C, buffer C (20 mM Tris-HCl, 150 mM NaCl, pH 7.5) with 5 mM EDTA (apo); protein 0.5, 0.75 and 1.0 mg/ml; c(s) model.

A word on the stoichiometry N: it is the number of molecules, sites or subunits per partner or assembly. As a reminder, the Kd is the concentration at which binding is half-saturated.

Take “Nucleobindin-2 from Gallus gallus (ggNucb2) (natural protein)”: the stoichiometry N in experiment [1] is > 2; in experiment [2], 2.

With “Nucleobindin-2 from Gallus gallus (natural protein)”, the equilibrium dissociation constant (Kd) in experiment [3] was 16 nM.

Consider “Nucleobindin-2 from Homo sapiens (hsNucb2) (natural protein)”, for which the stoichiometry N in experiment [4] and in experiment [5] was 2 throughout.
